Results from publication PMC11782079.
pKd: −log10 of the molar value.

biological target: FaRel2-Δ166–206 (Coprobacillus sp. D7); assay: ITC; ATfaRel2 or variant in the syringe at 200-150 uM, FaRel2 in the cell at 15-20 uM; 25 °C; 25 mM HEPES pH 7.6, 300 mM NaCl, 2 mM MgCl2, 1 mM TCEP

Substance	pKd
ATfaRel2 antitoxin (wild type) (natural protein)	5.48

biological target: Coprobacillus sp. D7 FaRel2 toxin, catalytically impaired Y128F variant (Coprobacillus sp. D7); assay: not given

Substance	stoichiometry N	pKd
ATfaRel2 A50M (natural protein)	1.1	–
ATfaRel2 F59A (natural protein)	0.99	5.67
ATfaRel2 I45A (natural protein)	0.91	6.06
ATfaRel2 V43A (natural protein)	0.97	–
ATfaRel2 Y51A (natural protein)	0.9	5.82
ATfaRel2 Y54A (natural protein)	0.92	5.06
Coprobacillus sp. D7 ATfaRel2 antitoxin (natural protein)	1.1	–
